Test results: publication PMC13264800

Legend:
[1] = molecular target: recombinant macaque IgE (trastuzumab-IgE; anti-Her2-IgE) (macaque); test: SPR; Biacore X100, HBS-EP+ running buffer; Her2 amine-coupled on a CM5 chip, trastuzumab-IgE captured via Her2; anti-IgE as full-length IgG or Fab injected (1.56-25 nM or 1.56-50 nM), association 120 s, dissociation 300 s; 1:1 langmuir fit
[2] = molecular target: recombinant human IgE (trastuzumab-IgE; anti-Her2-IgE) (human); test: as above
[3] = molecular target: recombinant human IgE (trastuzumab-IgE; anti-Her2-IgE) (human); test: SEC-MALS; trastuzumab-IgE mixed with anti-IgE IgG at different molar ratios

| Kd [1] [nM] | koff [1] [s⁻¹] | kon [1] [M⁻¹ s⁻¹] | Kd [2] [nM] | koff [2] [s⁻¹] | kon [2] [M⁻¹ s⁻¹] | stoichiometry N (4:4 (anti-IgE:IgE)) [3] | Substance |
| --- | --- | --- | --- | --- | --- | --- | --- |
| 16.1 | 0.00811 | 504000 | 14.6 | 0.00614 | 420000 |  | Omalizumab Fab |
| 0.0543 |  |  | 0.0594 |  |  | 4 | Omalizumab full-length IgG (antibody) |
